Laboratory results published in the supplement of paper PMC10567573.

B1: ZNF449 (parent)
chain: TLHQRTHTEERPFKCNYCGKSFRQ
B2: CCDC6 (parent)
chain: ASVTIQARAEQEEEFISNTLFKKI

Variants of: B1
Assay: protein stability index of a GFP-peptide fusion (GPS, HEK-293T) (PSI 1-6); higher = more stable
Conditions: c terminus: a fixed tail appended
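Also: lentivirally expressed fusions sorted by FACS into six bins by GFP to DsRed ratio, PSI derived from sequencing read proportions per bin multiplied by bin number.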

Variant | protein stability index
F13N | 3.54
F13L | 2.07
F13Y | 2.22
F13A | 2.14
F13I | 3.01
F13D | 2.92
F13S | 2.26
F13Q | 2.92
F13C | 3.05
F13K | 2.28
F13M | 2.18
F13R | 1.69
F13P | 2.24
F13H | 1.39
F13T | 3.78
F13G | 2.79
E10Q | 2.56
E10N | 2.48
E10C | 1.74
E10W | 2.46
E10K | 2.03
E10R | 1.81
E10H | 1.78
E10T | 2.25
E10L | 1.55

Variant | protein stability index
E10M | 2.73
E10P | 1.91
E10S | 2.1
E10V | 3.31
E10G | 1.18
E10I | 3.39
E10F | 1.48
E10Y | 2.55
E10A | 1.95
K14I | 2.27
K14T | 1.9
K14M | 2.2
K14S | 2.34
K14C | 2.71
K14Q | 2.22
K14N | 1.95
K14H | 2.31
K14P | 2.83
K14F | 2.85
K14L | 1.73
K14D | 2.41
K14W | 2.1
R11L | 2.39
R11I | 2.08
R11A | 2.39

Variant | protein stability index
R11C | 2.24
R11D | 3.19
R11H | 2.53
R11M | 2.25
R11N | 2.42
R11K | 2.5
R11S | 2.25
R11Y | 2.11
R11Q | 2.95
R11P | 2.12
R11V | 2.54
R11T | 2.33
R11E | 3.24
R11W | 2.09
R11F | 1.92
L2R | 2.75
L2Q | 2.41
L2F | 3.22
L2Y | 2.64
L2G | 3.08
L2K | 2.74
L2H | 2.45
L2I | 2.17
L2W | 1.83
L2N | 2.59

Variant | protein stability index
L2D | 2.77
L2V | 2.4
L2S | 2.7
L2A | 2.95
L2M | 2.58
L2T | 2.27
L2C | 3.15
L2P | 2.88
L2E | 3.64
H3W | 2.82
H3G | 2.4
H3S | 2.1
H3V | 1.98
H3M | 2.25
H3C | 3.27
H3Q | 2.83
H3P | 2.66
H3A | 2.76
H3E | 2.87
H3Y | 2.15
H3R | 2.82
H3D | 2.62
H3K | 2.89
H3F | 2.47
H3I | 1.99

Variant | protein stability index
H3N | 2.62
H3L | 1.85
H3T | 2.42
H7W | 2.88
H7L | 2
H7T | 2.8
H7M | 2.29
H7C | 2.66
H7P | 2.43
H7A | 1.65
H7N | 2.12
H7Q | 2.88
H7V | 4.2
H7D | 2.65
H7E | 2.5
H7Y | 1.94
H7G | 1.97
H7K | 2.27
H7S | 2.4
H7I | 2.37
H7F | 2.13
H7R | 2.48
T6P | 1.76
T6Q | 2.54
T6M | 2.03

Variant | protein stability index
T6H | 1.55
T6Y | 2.25
T6R | 2.28
T6C | 3.06
T6S | 3.12
T6W | 2
T6F | 1.76
T6E | 2.67
T6N | 2.08
T6A | 2.38
T6D | 2.56
T6G | 1.85
T6I | 2.33
T1D | 2.46
T1S | 3.59
T1W | 2.01
T1Y | 2.01
T1M | 2.39
T1V | 3.17
T1H | 2.66
T1K | 3.28
T1P | 2.56
T1F | 2.08
T1R | 2.02
T1I | 2.21

Variant | protein stability index
T1C | 3.64
T1L | 2.04
T1G | 2.89
T1Q | 2.19
T1E | 2.64
T1A | 2.12
T1N | 2.87
R5E | 3.05
R5D | 2.91
R5W | 2.15
R5H | 2.73
R5A | 2.44
R5F | 1.78
R5M | 1.76
R5C | 4.17
R5P | 2.12
R5V | 3.27
R5S | 2.45
R5K | 2.77
R5Y | 2.4
R5L | 2.24
R5N | 1.65
R5I | 1.97
R5T | 2.45
R5G | 1.83

Variant | protein stability index
R5Q | 1.89
E9F | 1.25
E9L | 1.2
E9R | 2.26
E9P | 1.93
E9S | 2.55
E9H | 2.71
E9K | 3.15
E9G | 2.97
E9W | 1.77
E9A | 2
E9C | 2.4
E9I | 1.8
E9Y | 2.19
E9D | 2.15
E9Q | 2.72
E9N | 1.88
E9V | 1.76
Q4S | 2.12
Q4E | 2.85
Q4G | 2.12
Q4H | 1.73
Q4V | 2.38
Q4N | 2.75
Q4M | 2.08

Variant | protein stability index
Q4L | 1.9
Q4W | 2.24
Q4D | 2.41
Q4P | 2.92
Q4K | 2.94
Q4A | 2.08
Q4I | 1.71
Q4T | 2.67
Q4F | 2.42
Q4C | 3.33
Q4R | 3.24
Q4Y | 2.03
P12W | 2.89
P12Q | 2.79
P12F | 2.25
P12L | 3.05
P12M | 2.45
P12A | 2.81
P12S | 2.52
P12H | 2.32
P12E | 3.26
P12K | 2.89
P12N | 2.41
P12I | 3.29
P12C | 2.94

Variant | protein stability index
P12R | 2.21
P12G | 2.52
P12Y | 2.77
P12V | 2.57
P12T | 2.26
P12D | 3.12
T8P | 2.4
T8M | 2.6
T8G | 2.04
T8F | 2.34
T8L | 1.64
T8S | 2.65
T8Y | 2.54
T8I | 2.56
T8N | 1.94
T8E | 3.07
T8A | 2.29
T8D | 2.62
T8W | 1.82
T8V | 2.59
T8Q | 2.69
T8K | 3.13
T8C | 2.3
T8R | 1.99
T8H | 1.18

Variants of: B2
Assay: as above
Conditions: c terminus: a fixed tail appended

Variant | protein stability index
K22N | 3.98
K22E | 3.74
K22M | 1.74
K22Q | 3.7
K22R | 2.92
K22F | 1.94
K22H | 3.5
K22G | 3.49
K22A | 2.87
K22L | 2.19
K22S | 3.64
K22P | 4.13
K22W | 2.1
K22T | 2.86
K22D | 3.49
K22Y | 2.21
K22V | 1.91
K22C | 2.17
I24L | 4.23
I24D | 4.85
I24H | 4.37

Variant | protein stability index
I24P | 4.25
I24F | 3.66
I24Y | 3.56
I24E | 4.58
I24A | 4.14
I24S | 4.17
I24M | 3.83
I24C | 4.52
I24N | 4.71
I24Q | 4.36
I24R | 4.03
I24T | 4.76
I24W | 3.59
I24G | 4.48
I24V | 3.71
I24K | 4.8
L20V | 3.82
L20W | 2.91
L20Q | 4.62
L20Y | 3.69
L20N | 4.42

Variant | protein stability index
L20T | 4.64
L20S | 4.68
L20R | 4.09
L20P | 4.14
K23A | 3.23
K23R | 3.28
K23P | 3.19
K23Q | 3.17
K23W | 2.23
K23F | 2.01
K23T | 3.34
K23C | 2.96
K23V | 2.73
K23Y | 1.98
K23H | 3.08
K23S | 3.04
K23N | 3.37
K23I | 2.52
K23D | 3.21
K23L | 2.11
K23M | 2.35

Variant | protein stability index
K23E | 3.89
K23G | 3.21
F21H | 3.88
F21P | 4.52
F21Q | 5.01
F21L | 4.78
F21T | 4.49
F21A | 4.66
F21W | 3.39
F21G | 4.71
F21K | 4.7
F21E | 4.93
F21Y | 3.72
F21C | 4.76
F21S | 4.37
F21R | 4.54
F21I | 3.58
F21D | 4.87
F21V | 4.39
F21M | 4.46
F21N | 4.42
